This is an account of results in the supplement of paper PMC12636428.

The data set deals with Saccharomyces cerevisiae. In words: transcriptional activation domain activity (GFP:mCherry ratio, weighted mean of sorted bins, harmonized to initial dataset scale) (arbitrary fluorescence ratio units); higher = stronger transcriptional activation. Conditions: beta-estradiol 1 µM; induction time 4 h. A digest of the protocol: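 Values are activation activity, found as the read-weighted mean of bin median fluorescence, averaged across barcodes and then mapped linearly onto the initial dataset scale. Barcoded protein tiles fused to an estradiol-inducible synthetic transcription factor were integrated at the URA3 locus of GFP-reporter yeast diploids. Cells were induced for 4 hours at 30 °C with 1 uM beta-estradiol in SC, sorted into 8 bins by GFP:mCherry ratio, and barcode-sequenced, with tiles under 50 reads discarded.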
In the case of “IRSSSHLFPISPFYFVFLFWSSFSVFTMLLLPPTIPRSNQFRAFSSFLWFSWI”, the “transcriptional activation domain activity” value turned out to be 67000.

Turning to “ISSSEKESDGENDSDSEENEQNDQSEIFPEFLGRRDPWQAVTVFILALLVFRN”, the “transcriptional activation domain activity” value was 66500.

As to “WCVVLCMVLILPRLFYTILQMNDYNISPFNPNVNALYTSLLGYLPLLAVFIVM”, the “transcriptional activation domain activity” value was determined as 53800.

As to “SLFLLVVSINDVQTINFFYFVTDYGSWLEIGTSISHFCIAELFIIFTICLFWL”, the “transcriptional activation domain activity” value came to 37800.

Regarding “TSSPSAISSTSVNTLLVAGSEGTDAHVKTVGEQLKTRMGVKGGGKGTRWSGKM”, the “transcriptional activation domain activity” value amounted to 57300.

As to “SNYSNLATRAPSGPPQFLVNNVIQHWGGVDGWIKWILKIRKAYILRRDVFLAT”, the “transcriptional activation domain activity” value worked out at 56800.

On to “KQYCVRPNSGRIEPGKEVEVTVLLQAMKQEPPIDAKCRDKFLVQSVAVTADKE”, for which the “transcriptional activation domain activity” value was 51300.

On to “LVLKMILDRLAEPGDSLLNIDFSTLIHQFAKYLNKVPSNYVVLRIKIKICHLV”, for which the “transcriptional activation domain activity” value was determined as 61000.

As to “EGSERESKGSEREGEGSEREGKRNEREGKRGERGGERVGERGSEKVGERGSEK”, the “transcriptional activation domain activity” value amounted to 22700.

“KHMHLESKPPQLPPKCSSLRKPTNTLQGTNHAYHEHILNTDMDLKILEDLCNI”: the “transcriptional activation domain activity” value amounted to 64100.

For “LHQFDHFGYQQVFSVRWMKKHLHDVSGGVMLHVIKYMANILSSLLAPMGYFEM”, the “transcriptional activation domain activity” value is 29600.

As to “ICIIPFVNGFLCEPILPLFFFCSFLILSESWFIFLHWFGSWSLVIYFGSWCLF”, the “transcriptional activation domain activity” value came out at 79700.

For the sequence “HRQTTLSVALPCGELHIAYLVAGLLFHGATCDDIVVIMLCARILFSVCKIYYH”, the “transcriptional activation domain activity” value was found to be 77100.

Regarding “SESDTDSEEEEIEEDEGAAETRPGIRLQREEKAVETGEITNRLAIVNIDWDHL”, the “transcriptional activation domain activity” value worked out at 32000.

With “DYLWADMDSFFPFVRLLPTPVQEIWDMTFDIALLPLMECPPPEEWTLFDTYAY”, the “transcriptional activation domain activity” value amounted to 52400.

“MAETTTSDSGASSSTALQRGKACLRCRKRKMRCDGQKPACSQCVKARKTDACE”: the “transcriptional activation domain activity” value stood at 34100.

With “MWSFFFFLFFFGFCFLVFWPNLFFLFFFHDSCPFVLLLFLFHLFHLPVFPRSG”, the “transcriptional activation domain activity” value turned out to be 40300.

“FLLLFFFFVYFHLSFSFLTFLLSPLFVFIFMFYFGSFIFLPLSLFLFSLLFFS”: the “transcriptional activation domain activity” value was found to be 66100.

On to “KFFVRHQHKLYYVILSLGRFNLHNLSFTYLFTAPRVRYRWLEIFGICVFFTWY”, for which the “transcriptional activation domain activity” value was found to be 55900.

“RALPPFFSFFPFFRSCPLPLLSLPFSHPCFPLRLVSFFFFLLFCFSFFFILTC”: the “transcriptional activation domain activity” value was found to be 32900.

Turning to “LNDDDIEKILQPNDIFTTDRTDASTTSSTAIEDIINPSLDPQSAASPVPSSSF”, the “transcriptional activation domain activity” value is 81400.

With “PFLFKITVLYVLEVIDGILDVSRFFPAVQLELCCLMFLWCCCGMVLLWFCLTR”, the “transcriptional activation domain activity” value is 58800.

On to “MQTKVFVFPLFLHYLYCVIFHLLWILFGIAFIFSLVSIIIYLLIVFAHLFHFV”, for which the “transcriptional activation domain activity” value came to 66700.

Regarding “MSSHDGYRTRRTPQACVACRRRKTKCDGARPRCRHCASRHRQCVWPDVAEGAS”, the “transcriptional activation domain activity” value was 39900.

Turning to “SNKRPSSGPARGGRNNGGRGNNQNANNNRGGRRGRGGAKESGAPNGQKKAGAP”, the “transcriptional activation domain activity” value came to 9410.

In the case of “IPYVAQEYGFDYELVTYKWPSWLRAQKEKQRVIWAYKILFLDVLFPLDLKKVI”, the “transcriptional activation domain activity” value stood at 62100.

In the case of “IKLMDLLIILLKIHGFRLKYFLLTNDLFPKIMLLCRANHLSLQLCPVRFLRIC”, the “transcriptional activation domain activity” value is 81100.

For the sequence “PGAAGGEKEKKKRQRTKNKKVDAAAPAEDAPAAAAEKLAKLEVAPADDDAAAK”, the “transcriptional activation domain activity” value was found to be 25900.

For the sequence “VPYQKYLYYPLLCFGRFNLYVLSLEFILRDKGPKSNRWHRFYELSGQVFFWFW”, the “transcriptional activation domain activity” value turned out to be 71200.

For “HHFVCAFYFQDSWGLGLMKRLLIVVCLLLATYVFPLPLTSPPWSFIWKQSWVI”, the “transcriptional activation domain activity” value was found to be 48300.

As for “MDFFYIFNYLISYITNRLMILLYYFTHTHFLLFPLSLFYYYFSCSCFFLLFPP”, the “transcriptional activation domain activity” value came to 36500.

As for “MSMLQVQWCYVMLYFDLSTSELLYFYLYLIFYSSFLFFNLWWLLNVDDASAPA”, the “transcriptional activation domain activity” value is 41500.

On to “SQLYFNVYPNELDERFSLFDPTYSLQWLFEHLFTTRVVELTRMLCFVMCIFVL”, for which the “transcriptional activation domain activity” value is 37700.

Take “MQFSLLFFFCLLFPPLLLFLCSFFFSFLFLEIFGFVNCLGFRRSHFQRQALLV”: the “transcriptional activation domain activity” value is 54500.

Regarding “HLSLSPSLIPTLSFFLLLLYPLVFFIFIIYRGPLFFLFDLTHLICFIYILFIL”, the “transcriptional activation domain activity” value worked out at 27400.

Consider “ERAVVGLLRICLILATRPSLRDQIFVSFDLLAGLPPAIANAVAEQVVAGLILV”, for which the “transcriptional activation domain activity” value was found to be 35700.

For the sequence “VHEVRAKAVKLVTASDSDDESGAGAGKAKKSEWKTQGVGPLRLLKNKSTGAVR”, the “transcriptional activation domain activity” value was 32400.

As for “TLRQELPNFFIFGLNNTSIYSSNILLWEPRYTGLQIRGKWSYLMLAATIRWSL”, the “transcriptional activation domain activity” value came to 54000.

On to “MFWLTLLPSPCFTFFALCYKFFSFLVSIEFFKSCFLPLPTVSPNLLSSLALLL”, for which the “transcriptional activation domain activity” value stood at 63800.

As for “LVLRSVILSLMVFLVIFCSEYFLFPFCHSICCYGYIYILIDSWVSFSLLVFFS”, the “transcriptional activation domain activity” value was 65700.

As for “VARKLLNTIHPALGPLHACSVLRKIRVLICMAGEHATSTYPLEMLLHSLRVFV”, the “transcriptional activation domain activity” value amounted to 44700.

As to “DCSSILFSPLTTNTNNEFEGESDDFVHSPYLNSEADFSQILSSAPPVHHDPNE”, the “transcriptional activation domain activity” value was determined as 72800.

As for “IPSLLSLSFYCLGFLSFAISSFSFPSFPLYHYPLCLGFLYSAGWLVGGYLWLY”, the “transcriptional activation domain activity” value is 77000.

Consider “ILRVERTGHSGTLDPKVTGCLIVCIDRATRLVKSQQGAGKEYVAVIRLHGKLP”, for which the “transcriptional activation domain activity” value came out at 33800.

For the sequence “ETGSEWREGSSDGFRSVKTVLLGVWAEYGGLRRNEICDTLRRLTLSSLGKINP”, the “transcriptional activation domain activity” value worked out at 53800.

With “MMFFFFFLVSFIYFWIGAPVGFFILKIKFVMLDVQSLHLAIFLICPHLCFYVM”, the “transcriptional activation domain activity” value came to 54400.

Regarding “SSSGTPQAKSSSPSSTAASTKAPTSSATKPTSTGSCRKKRSNSTQRRSRTSRM”, the “transcriptional activation domain activity” value is 45400.

As to “KKEEVKQEPTPAAAPEASTSDRGRGRGRGRGEGRGRGDGTRGRGRGGARPAGP”, the “transcriptional activation domain activity” value turned out to be 34900.

As to “DINSFTNQQQQAQDNPSFLPLDIEQSSYDLSEDAMSYPIISTQSNRDCTQYDN”, the “transcriptional activation domain activity” value came to 68700.

For “EIAEGDEAEAARPAKIPRKPRRKKAVEGEGANEEGGAAPPRPKRKRKTKSKSA”, the “transcriptional activation domain activity” value amounted to 42100.

On to “MATDATVNAPASAEATTARRRRSHQKSRLGCRNCKLRRVKCDERRPRCVKCRE”, for which the “transcriptional activation domain activity” value turned out to be 35500.

For the sequence “LLVFGFEEHFFFFIFFFLVDGSAFCMFCDVFHFYVCCYVPHLLCLTLVIAGVS”, the “transcriptional activation domain activity” value worked out at 73000.

Consider “EGKGKKGEKREREKRRGRGGKREKRRKREGRRRREKREGKEGGGEKEEKEGEE”, for which the “transcriptional activation domain activity” value stood at 29000.

Turning to “YRSRGIDEGRGKREAGRERERAERRSTKEAEKGGEGRWEGRSARRKEAGGKKG”, the “transcriptional activation domain activity” value stood at 56700.

For “HQPGPWESLDMPWAIGWGLGAFPGIPWDVFFFPLWPSTLFPGSPPPSLLEAPS”, the “transcriptional activation domain activity” value came out at 55500.

In the case of “QKKKEAAARNKAKAAPAKEEAAVTPAKVVEKPAAAAAATPAKGGKKMTAALRL”, the “transcriptional activation domain activity” value worked out at 37600.

With “PLIDLFGKDHLCLVKAAYHKIFGIVFESGTDLTDHVRRMLCTRSDFARTILPL”, the “transcriptional activation domain activity” value stood at 82800.

“MNRFSIRFTFVISLIDILRGIIILLYTYIHNVGFQCSLISFLFHWLTLVYFFL”: the “transcriptional activation domain activity” value came out at 55100.

In the case of “MLRFYVLISFFFFLCNHLLFLICFIYIREFLSHLSGALVLCFGCMVWFLNFPS”, the “transcriptional activation domain activity” value was 62000.

Take “MLMVLFSIFSTMPSPVYIIILFPSFLTFFFRYILSTVLGLWTFAFHLIPNSCW”: the “transcriptional activation domain activity” value was found to be 65200.

On to “PAPAPMGRRTFAVDVDESAHSLAKKVKAARVRGYNYIIVVGERDAERGTAAVQ”, for which the “transcriptional activation domain activity” value turned out to be 44800.

With “VSASVVYLFFIFIFSLSYPILSCPYLLTHSLTLSILPPFSFPLPFFFLSFFLP”, the “transcriptional activation domain activity” value stood at 58800.

Regarding “MHRATNYYFSFSALLYLVFIFLRCSLALGLFFCFMFLSFEFFCFLMVLCLFCI”, the “transcriptional activation domain activity” value was 33200.

On to “MIPGVLLECSFVEFLSFLLDLLLLTLLWIMRLMMMLLLPLFLLLLLIFVYCCV”, for which the “transcriptional activation domain activity” value stood at 39500.

On to “GEKRKRGGEGKGEDDDDDDDDDRGQEGDGKRGSEDTGGGSKKGRRRRKRGKGH”, for which the “transcriptional activation domain activity” value came out at 22600.

Take “FILYSLLLIPFPLNYILSYIFFFFFLILWGIYLAMRGFFKSWFSLWAWAGNGI”: the “transcriptional activation domain activity” value turned out to be 64600.

Regarding “PPCLKLAGWLAFVVGSFCQSTNLVVIQISQNNWDCFSIWRTLILLVIFFSLPA”, the “transcriptional activation domain activity” value worked out at 58500.

Regarding “MLTLLSVTHGLLHKSLVHLGSIFDLCLLWAQGKYTNPILSCLLSLYLLSWLLY”, the “transcriptional activation domain activity” value was determined as 62700.

As to “ESEEEVAAGSSANGKKQSGTRDSSKRSKKSDSKSEAKRSDKAEGAAEKTAPES”, the “transcriptional activation domain activity” value was found to be 18500.

Take “RAITPMRVWMEVHDRAAFKLVWSEVFRLVSVLTDCPLRFKRLHYGGTMLGINT”: the “transcriptional activation domain activity” value came out at 45000.

Take “FTMLIGRKRPDVSTCVLIAVVISQCLFYVVVFFVKILGLVKYFLLFSSLADKL”: the “transcriptional activation domain activity” value stood at 56300.

Regarding “HSVHAGLIFPLFHRHCFYMLESSLRTKSDRLVFNSLSSHAGVIAWLRTQGVLQ”, the “transcriptional activation domain activity” value was 65500.

For the sequence “TIHLVNTIQVIVLILDRFLYGIIPLFEIHTCAFFPLLISFWHVSYLLYYVIMF”, the “transcriptional activation domain activity” value was 37200.

For the sequence “LNWYWLASTMYFLYGESVIYYFKHIVLVDKVLLPLATHHRFISFLLYLMGFVF”, the “transcriptional activation domain activity” value came out at 93000.
